Reference: a protein production outcome set (Wang et al. 2014)

Experiment: label from the status in PepcDB records
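Further: failed if final PepcDB status was selected cloned or expressed and not failed if soluble or beyond.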

Sequence	protein production
MLLEDRILKKWLLPFILSVLIAVDSMAQCIPVYKDSSMSVERRVTDLLGRMTLREKIAQLSHLHGYQLYNGQEVDYQKLRDAAGDISYGCIEGFNLTGENVRKAFHAIQKYMVEETRLGIPVFTVTESLHGSVHDGSTIFPQSVAVGSTFNLDLAYQMTKAIATELRSQGVIQTLSPGLDVVRDLRWGRVEESFGEDPWLVGQMGIAQVKGYIDGGISPMLKPFGPGGAPLGGLNLASVESGERDIRNIHIKPYEMAVRNTEVKAVMTSYNSWNGIPNSASSYLLTNILRNEWGFKGYVYSDWGAVAMLKDFQHTAKDDSEAAIQALTAGVDLEASSNCYWALEQLIEQGRFDEKYVDLAVGRILRVKFELGLFENPYQGADMPGVAMRTKEAVELSRRVADESIVLLKNENTLLPLNLNKIKSLAVIGPNANQVQFGDYTWSRSNKDGVTPLEGLKKRVGNKIKINYAAGCDLITDNKSGFDEAVAAVKASDMAVVFVGSSSASLARDYSDATCGEGFDLSSLDLTGVQEELVEEIYAIGKPVIVVLVTGKPFSISWIKEHIPAIVVQWYGGEKAGDAIADMLLGNINPSAKLPFSFPQSVGHLPVFYNHLPTDKGFYRRPGRPNEPGRDYVFSSPAPLWSFGHGLSYTTFEYLNAHYSAELLHPSDTLIVSVSLKNTGSVAGKEVVQLYVRDVVSSVVTPVKQLKAFSKPFLQPGEMQTVVLKLPIQELALYDLSMKKVVEEGEYEIQIGTASDDIRLRRTIFVGRQPVTSNSLGHNDFCMDEIVKNPGRKIKVAGCVRDVQATPISGIEIKSNYSGRTVISKEGGRYSILTVENDVLTVSAKGFETVNIKVNKQKDIDIKLNYSHD	failed
MKKFVCTVCGYIHEGDAAPAQCPVCKVGADKFEEMKGEMVWADEHRIGVAQGVDAEIIEGLRANFTGECTEVGMYLAMSRQADREGYPEVAEAYKRIAFEEAEHAAKFAELLGEVVVADTKENLRVRVDAEYGATDGKLKLAKRAKELGLDAIHDTVHEMCKDEARHGKAFLGLLNRHFGKLEHHHHHH	not failed
MNKKKKKRTPKPINLNELEEKINILNFMKNDFEIVLQKENEKHSEVSIQYTNKEESSTLERERINIILKELIISCNEKKEHLNNYIKVAKDIIQKNNETIEKEKNDIDKLILQKDEQIKDVEKKIVIVQNFYKDINKGIIQLINNLEVYLRNKMNINIDIKKMNDKTIELTNVQKLNKQQECKENEFKNILYMSIDKYNEQISIIRTFIKKIKLKQEIDVIKEDNIINTNDDILREPSNNTNEQKEQSHKYDYSHDENENNNFRKYEMINIEEENDKENNVKGDNKLIINKNNVDSFDEDDSYDEDDSCDEDNSCDEDNSCGEVNSCGEDDSYDEDDSYDEDDSYDEDNSYDEDNSYDEDNRCGEKLEKEQLHNLQDDKKNYTLKKNINETLLSSLDDDESKFSSSNSDTTKSFEVYKNKEKDKDKEIYNYLYSEEETYEQKKNNESSNSDDDDNKKEHFIKKFTTLKTNKNILNEDVQFLMDKIKKIDYDYISYFEKKLKYK	failed
MELRIMTGKLILLGFIIYQCVFSESDNLPWLVFSLLVYVCINLGIAILPKGKTKKLFIIISVIISIVSYAEVHPLFILFLPFTLCEGAADFGLPKWAVLAASIVPVLFINESISAVYALTAAFQFLLYWAASHDAARIEKLEHHIDQTRRDLQKLTNMLRENKEFIRQSEYTYKLEERNRLSQEIHDKIGHSMTGALIQLEAAKRVLDIDKEKASELLQNAINISKDGIENIRLTLKSVKPPSEQMGIHRLRLFIDECSAQYHMNISFLHKGDLDVISQIQWKIIFENITEALTNSVKYAEATHVSICIHVLNTLIKAEVKDNGKGRQKIKKGMGIIGMEERAASVNGKVIVDGSNGFSVTTLLPKHE	failed
MKHPDALRIALVGIGKIARDQHVPTIAARDDVQLVATVSRHGTVDGVPAYHTLEDAFAAQPQIEAVALCTPPVGRHALAQAALAAGRHVFLEKPPAATLAEIHDLQDVAQRAQRTLFTSWHSRCAAGVEPARAWLADKQLVRAHITWKEDIRHWHPGQDWILEPGGMGVFDPGINALSIATHLLPRSLALRDAELHTPENRQAPLYARLAFVDTAGLPVTAEFDFLQTGHQRWDIEVETTAGMLMLSEGGAKLRIEGQLQALPASSEYDGLYGRFVQLVRAGQSEVDIAPFVHVADAFMLGARQVTAPFAW	failed
NFNPPTRRNWESNYFGMPLQDLVTAEKPIPLFVEKCVEFIEDTGLCTERLYRVSGNKTDQENIQKQFVQDHNINLVSMEVTVNAVAGALKAFFADLPDPLIPYSLHPELLEAAKIPDKTERLHALKEIVKKFHPVNYDVFRYVITHLNRVSQQHKINLMTADNLSICFGQPLMRPDLKSMEFLSTTKIHQSVVETFIQQCQFFFYNGEIVETTNIVAPPPPSNPG	failed
